Consider 4 molecules from patent publication US20220098266A1 (AKSTON BIOSCIENCES, published 2022).

Numbering of substitutions follows the chain as printed.

B1: insulin-Fc fusion protein of SEQ ID NO: 24 (insulin polypeptide SEQ ID NO: 4, linker SEQ ID NO: 8, canine IgGB Fc fragment SEQ ID NO: 11) (Fc fusion)
chain: FVNQHLCGSDLVEALALVCGERGFFYTDPTGGGPRRGIVEQCCHSICSLYQLENYCNGGGGAGGGGDCPKCPAPEMLGGPSVFIFPPKPKDTLLIARTPEVTCVVVDLDPEDPEVQISWFVDGKQMQTAKTQPREEQFNGTYRVVSVLPIGHQDWLKGKQFTCKVNNKALPSPIERTISKARGQAHQPSVYVLPPSREELSKNTVSLTCLIKDFFPPDIDVEWQSNGQQEPESKYRTTPPQLDEDGSYFLYSKLSVDKSRWQRGDTFICAVMHEALHNHYTQESLSHSPG
notes: Made in HEK293 cells; Disulfide-linked homodimer, 93% homodimer; Glycosylated at cNg-NB139
B2: insulin-Fc fusion protein of SEQ ID NO: 27 (SEQ ID NO: 24 with the mutation cNg-NB139-S; canine IgGB Fc fragment SEQ ID NO: 14) (Fc fusion)
chain: B1 chain with N139S
notes: Made in HEK293 cells; Non-glycosylated homodimer, 98.3% homodimer; also called cNg-S
B3: insulin-Fc fusion protein of SEQ ID NO: 29 (SEQ ID NO: 24 with des hinge D and the mutation cNg-NB138-K; canine IgGB Fc fragment SEQ ID NO: 15) (Fc fusion)
chain: FVNQHLCGSDLVEALALVCGERGFFYTDPTGGGPRRGIVEQCCHSICSLYQLENYCNGGGGAGGGGCPKCPAPEMLGGPSVFIFPPKPKDTLLIARTPEVTCVVVDLDPEDPEVQISWFVDGKQMQTAKTQPREEQFKGTYRVVSVLPIGHQDWLKGKQFTCKVNNKALPSPIERTISKARGQAHQPSVYVLPPSREELSKNTVSLTCLIKDFFPPDIDVEWQSNGQQEPESKYRTTPPQLDEDGSYFLYSKLSVDKSRWQRGDTFICAVMHEALHNHYTQESLSHSPG
notes: Made in HEK293 cells; Non-glycosylated homodimer, 98.1% homodimer; also called cNg-K
B4: insulin-Fc fusion protein of SEQ ID NO: 20 (insulin polypeptide SEQ ID NO: 4, linker SEQ ID NO: 8, canine IgGA Fc fragment SEQ ID NO: 10) (Fc fusion)
chain: FVNQHLCGSDLVEALALVCGERGFFYTDPTGGGPRRGIVEQCCHSICSLYQLENYCNGGGGAGGGGRCTDTPPCPVPEPLGGPSVLIFPPKPKDILRITRTPEVTCVVLDLGREDPEVQISWFVDGKEVHTAKTQSREQQFNGTYRVVSVLPIEHQDWLTGKEFKCRVNHIDLPSPIERTISKARGRAHKPSVYVLPPSPKELSSSDTVSITCLIKDFYPPDIDVEWQSNGQQEPERKHRMTPPQLDEDGSYFLYSKLSVDKSRWQQGDPFTCAVMHETLQNHYTDLSLSHSPG

T1 sequence (P06213 28-1382): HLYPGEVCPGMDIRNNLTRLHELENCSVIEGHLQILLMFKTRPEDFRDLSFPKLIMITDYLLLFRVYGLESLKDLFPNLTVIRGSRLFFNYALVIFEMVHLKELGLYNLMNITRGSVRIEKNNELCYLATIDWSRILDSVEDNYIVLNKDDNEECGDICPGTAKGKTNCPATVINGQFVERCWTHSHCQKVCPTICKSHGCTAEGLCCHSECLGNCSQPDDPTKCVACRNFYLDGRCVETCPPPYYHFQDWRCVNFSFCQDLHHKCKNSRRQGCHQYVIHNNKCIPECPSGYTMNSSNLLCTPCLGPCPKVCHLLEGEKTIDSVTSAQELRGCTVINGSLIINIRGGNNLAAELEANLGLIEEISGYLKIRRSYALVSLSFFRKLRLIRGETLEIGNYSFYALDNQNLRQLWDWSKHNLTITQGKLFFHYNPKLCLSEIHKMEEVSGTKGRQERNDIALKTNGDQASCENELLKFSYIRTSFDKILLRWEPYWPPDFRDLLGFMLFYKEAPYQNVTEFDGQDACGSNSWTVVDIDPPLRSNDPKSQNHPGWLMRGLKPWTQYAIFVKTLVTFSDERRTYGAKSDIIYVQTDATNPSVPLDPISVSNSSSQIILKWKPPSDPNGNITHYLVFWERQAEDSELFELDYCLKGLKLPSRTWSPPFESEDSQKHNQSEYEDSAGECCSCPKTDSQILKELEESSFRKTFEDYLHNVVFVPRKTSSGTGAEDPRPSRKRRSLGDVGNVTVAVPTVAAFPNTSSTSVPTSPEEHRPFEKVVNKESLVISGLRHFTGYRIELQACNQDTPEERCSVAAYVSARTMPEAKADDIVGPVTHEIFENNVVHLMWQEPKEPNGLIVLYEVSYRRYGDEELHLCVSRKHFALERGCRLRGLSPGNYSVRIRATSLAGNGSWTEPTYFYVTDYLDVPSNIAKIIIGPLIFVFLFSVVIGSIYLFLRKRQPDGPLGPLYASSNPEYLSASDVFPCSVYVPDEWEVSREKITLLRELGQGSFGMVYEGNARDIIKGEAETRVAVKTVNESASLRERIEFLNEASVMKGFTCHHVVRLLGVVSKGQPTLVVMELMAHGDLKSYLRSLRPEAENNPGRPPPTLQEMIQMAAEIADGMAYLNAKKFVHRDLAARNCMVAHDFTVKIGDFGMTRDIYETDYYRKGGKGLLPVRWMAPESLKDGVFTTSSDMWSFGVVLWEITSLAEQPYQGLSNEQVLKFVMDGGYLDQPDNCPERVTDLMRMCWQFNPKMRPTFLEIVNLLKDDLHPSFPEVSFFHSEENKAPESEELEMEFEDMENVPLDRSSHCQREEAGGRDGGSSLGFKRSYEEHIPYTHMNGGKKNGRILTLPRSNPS

This experiment has as its target T1, human insulin receptor on human IM-9 cells (human, UniProt P06213 28-1382).
T1 construct: whole, on cells; The natural receptor is an alpha2-beta2 tetramer processed from one precursor; also called IR; human IR
Put plainly: flow cytometry competition with biotinylated RHI on IM-9 cells at 4 C. As for the experimental part:
Cultures of IM-9 cells were centrifuged at 250×g (˜1000 rpm) for 10 min to pellet the cells. Cells were washed once with HBSS or PBS buffer, resuspended in cold FACS staining medium (HBSS/2 mM EDTA/0.1% Na-azide+4% horse serum) to a concentration of 8×10^6 cells/mL and kept on ice or 4° C. until test solutions were made. The insulin-Fc protein was diluted in FACS buffer in 1:3 serial dilutions as 2× concentrations in 1.2 mL tubes (approx. 60 μL volume of each dilution), and the solutions were kept cold on ice until ready for pipetting.
Biotinylated-RHI was diluted in FACS staining medium to a concentration of 1.25 μg/mL. 40 μL of the serially diluted test compound and 8 μL of 1.25 μg/mL Biotin-RHI were added into each well of a V bottom microtiter plate, mixed by slow vortexing, and placed on ice. 40 μL of an IM-9 cell suspension (8×10^6 cells/mL) was then added to each well by multichannel pipette, mixed again gently and incubated on ice for 30 min to allow competitive binding on the insulin receptor on IM-9 cells. Cells were then washed twice with […], of ice-cold FACS wash buffer (HBSS/2 mM EDTA/0.1% Na-azide+0.5% horse serum) by centrifuging the V-bottom plate at 3000 rpm for 3 min and aspirating the supernatant. Cells were then resuspended in […], of FACS staining medium containing 1:100 diluted Streptavidin-PE (Life Technologies) for 20 min on ice. Cells were then washed once with 275 μL of ice-cold FACS buffer and finally fixed with 3% paraformaldehyde for 10 min at room temp. Cells were then washed once with 275 μL of ice-cold FACS buffer and resuspended in 250 μl of FACS buffer for analysis.
The V-bottom plates containing cells were then analyzed on a Guava 8-HT flow cytometer (Millipore). Biotinylated-RHI binding to insulin receptor was quantitated by the median fluorescence intensity (MFI) of the cells on the FACS FL-2 channel for each concentration of the test compound. Control wells were labeled only with biotinylated-RHI and were used to calculate the percent (%) inhibition resulting from each test compound concentration. The % inhibition by test compounds of biotinylated-RHI binding on IM-9 cells was plotted against log concentrations of the test compound, and the resulting IC50 values were calculated using GraphPad Prism (GraphPad Software, La Jolla, Calif.) for the test compounds.
On the technique in general: Flow cytometry measures light scatter and fluorescence of single cells or particles in a stream.
Take B1: the IC50 – broadly, the concentration that gives 50% inhibition – worked out at 0.028 µM.

The molecule B2 displayed a 50% inhibitory concentration (IC50) of 0.145 µM.

In turn, B3 gave a half-inhibitory concentration (IC50) of 0.147 µM. The IC50 values of the last two molecules are within 1.5-fold of each other.

B4 displayed an IC50 of 2.73 µM.
